In US20240294622A1 (SUZHOU TRANSCENTA THERAPEUTICS, published 2024):

Columns and labels:
HGREM1-His (ACRO) [1] = target: T1, HGREM1-His (ACRO) (human, UniProt O60565 25-184); experiment: blocking ELISA, Human Gremlin-1 binding to BMP7; column OD450
T1 construct: Lys25-Asp184 of NP_037504 with C-terminal polyhistidine tag (ACRO GR1-H52H3); they are put here; also called hGREM1 (ACRO); human gremlin (ACRO)
T1 sequence: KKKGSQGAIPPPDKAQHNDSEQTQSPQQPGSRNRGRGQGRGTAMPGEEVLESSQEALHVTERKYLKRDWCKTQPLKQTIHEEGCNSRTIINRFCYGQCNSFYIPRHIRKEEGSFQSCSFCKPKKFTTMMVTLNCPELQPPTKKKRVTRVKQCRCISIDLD
Protocol: (§1) In addition, the ability of serial dilutions of antibodies provided herein to block Gremlin binding to human BMP2/4/7 was also examined via ELISA. Plates were coated with recombinant human BMP2/4/7 (0.5 μg/ml) overnight and then serial dilutions of antibodies were incubated with 1 μg/ml of human Gremlin-his modified for 1 h at RT before this complex was added to coated plates and allowed to incubate for an additional hour at RT. The plates were then washed and added with anti-his HRP (GenScript). Plates were then developed with a TMB solution and stopped by adding stop solution. The plates were read on a plate reader at 450 nm. […] The chimeric anti-gremlin 1 antibodies (69H5-chi) and chimeric anti-gremlin 1 antibodies (22F1-chi) also can inhibit the binding of gremlin to BMP2 and BMP4 (see, FIG. 3E and FIG. 3F). The chimeric anti-gremlin 1 antibodies (56C11-chi) can inhibit the binding of gremlin to BMP2 (see, FIG. 3E).

HGREM1-His (ACRO) [2] = target: T1, HGREM1-His (ACRO); experiment: blocking ELISA, Human Gremlin-1 binding to BMP4; column OD450
Protocol: as §1

Mouse Gremlin-His (R&D) = target: T2, Mouse Gremlin-His (R&D) (mouse, UniProt O70326 25-184); experiment: ELISA, coated mouse gremlin (R&D)
T2 construct: Lys25-Asp184 with 10xHis, R&D 956-GR; also called mouse gremlin (R&D); mGREM1
T2 sequence: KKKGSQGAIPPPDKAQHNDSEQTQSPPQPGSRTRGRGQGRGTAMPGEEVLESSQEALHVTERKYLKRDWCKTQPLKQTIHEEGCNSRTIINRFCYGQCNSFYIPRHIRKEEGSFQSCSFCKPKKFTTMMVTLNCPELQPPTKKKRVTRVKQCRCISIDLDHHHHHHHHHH
Protocol: Clear polystyrene plates (BEAVER) were coated with 100 μl/well of a […] hGREM1 (ACRO) and mouse gremlin (R&D) in high pH coating buffer overnight at 4° C. Then the plates were washed once on an automatic plate washer using PBS+0.1% Tween 20 (Sigma). 100 μl of block solution consisting of PBS+1% BSA+1% normal goat serum+0.5% Tween 20 (Sigma) was added to each well and incubated at room temperature for 2 hours. Then 100 μl of antibodies in antibody dilution buffer containing PBS+1% BSA+1% normal goat serum+0.01% Tween 20 starting from 2 μg/ml and then serial dilutions were added to each well of the plate and incubated for 1 hours at room temperature. Afterward the plates were washed three times with 200 μl of PBS+0.1% Tween20 followed by adding 100 μl/well 1:10000 Goat anti mouse IgG-HRP (abcam), and incubate for 1 hour at room temperature. They were then washed 3× with PBS+0.1% Tween20. Finally, 100 µl/well of TMB (Pierce) was added to each well and after several minutes add 50 μl of stop solution to each well. The plates were read on a Multiscan FC microplate reader (Thermo Scientific) at […].

HGREM1-His (ACRO) [3] = target: T1, HGREM1-His (ACRO); experiment: ELISA on coated Gremlin-his (column Gremlin)
Protocol: Binding affinities to hGREM1 and XM5 were also compared. Briefly, XM5-Fc or Gremlin-his […] was coated. 100 μl of block solution consisting of PBS+1% BSA+1% normal goat serum+0.5% Tween 20 (Sigma) was added to each well and incubated at room temperature for 2 hours. 4-fold serial antibody dilution from 2 μg/ml were added. Afterward the plates were washed three times with 200 ul of PBS+0.1% Tween20 followed by adding 100 μl/well 1:10000 Goat anti mouse IgG-HRP (abeam), and incubate for 1 hour at room temperature. They were then washed 3× with PBS+0.1% Tween20. Finally, 100 μl/well of TMB (InnoReagents) was added to each well and after 2 minutes add 50 ul of stop solution to each well. The plates were read on a Multiscan FC microplate reader (Thermo Scientific) at […]. The EC50 values were show in table below.

HGREM1-His (ACRO) [4] = target: T1, HGREM1-His (ACRO); experiment: blocking ELISA, Human Gremlin-1 binding to FGFR1
Protocol: Next, 0.25 μg/ml of gremlin was selected to test the blocking activity. The ability of antibodies to block Gremlin binding to human FGFR1-Fc was examined via ELISA. Plates were coated with recombinant FGFR1-Fc (2 μg/ml) overnight and then serial dilutions of antibodies were incubated with 0.25 μg/ml of human Gremlin-his modified for 1 h at RT before this complex was added to coated plates and allowed to incubate for an additional hour at RT. The plates were then washed and added with anti-his HRP (GenScript). Plates were then developed with a TMB solution and stopped by adding stop solution. The plates were read on a plate reader at 450 nm. […] Humanized anti-GREM1 antibodies provided herein (e.g., Hu14E3, Hu22F1) are expected to show the similar technical effect as their chimeric counterparts in blocking the binding of hGREM1 to FGFR1.

IC50 (HGREM1-His (ACRO) [1]): 0.683 µg/mL
IC50 (HGREM1-His (ACRO) [2]): 0.512 µg/mL
EC50 (Mouse Gremlin-His (R&D)): 0.00456 µg/mL
EC50 (HGREM1-His (ACRO) [3]): 0.0147 µg/mL
IC50 (HGREM1-His (ACRO) [4]): 1.84 µg/mL
B1: 36F5 (antibody, V domains shown)
VH: QVQLQQSGAELARPGASVKLSCKASGYSFTSSGIGWVKQRSGQGLEWIGEIYPRSGNTYNNEKFKGKATLTADKSSSTVYMELRSLTSEDSAVYFCVREAYSHHYYAMDYWGQGTSVTVFS
VL: DVLMTQTPLSLPVSLGGQASISCRSSQSLLHSNGNTYLEWYLQKPGQSPKLLIYKVSNRFSGVPDRLSGSGSGTDFTLKISRVEAEDLGVYYCFQGSHVPFTFGSGTKLEIN
notes: mouse hybridoma antibody; also called hybridoma 36F5
